Source: article PMC12363408
Values joined by “and” are separate entries in the source; they are usually repeats but may differ in a detail not shown here. Equal entries are not always repeated.

Tests used:
[1] = target: amyloid precursor protein C99 (UniProt P05067); experiment: SDS-PAGE with Western blot (SDS-stable oligomers); whole-cell expression samples of E. coli (0.8 OD600, autoinduction or IPTG), heated 4 min at 90°C in SDS dye, 4-20% gel, detected with antibody 6E10
[2] = target: amyloid precursor protein C99 (UniProt P05067); experiment: SDS-PAGE with Western blot (SDS-stable oligomers); SEC fractions of Ni-purified C99 in E. coli lipid pentyl-inulin nanodiscs (detergent-free), heated in SDS dye, 4-20% gel, detected with antibody 6E10

amyloid precursor protein C99 (from UniProt P05067 672-770) (domain or fragment)
stoichiometry N [1]: 2 and 3
stoichiometry N [2]: 3
